The record followed here is article PMC9427776, “TTYH family members form tetrameric complexes at the cell membrane” (Communications Biology, 2022).

“And” between values parts separate entries of the source, which are not always exact repeats. Identical values can stand only once.

Data set [1] deals with mTTYH3 ECD1-T4L-ECD2 (mouse | not stated) (UniProt Q6P5F7). The experiment in a line: cross-linking; secreted protein from clarified insect cell medium, DSS at 0, 10, 50, 100, 200, 2000 uM; western blot.
Data set [2] concerns the molecule itself. The experiment in a line: SEC; FSEC of HEK 293 cells solubilised in 1% DDM, Superdex 200 Increase, 150 mM NaCl, 50 mM Tris-HCl pH 7.5, 1 mM DDM; EGFP fluorescence; also after 10 min at 20-80 C (FSEC-TS) or with 20 mM 2-ME, both of which shift the population toward dimers. A general note: Size exclusion chromatography separates by hydrodynamic size, large species first.

Data set [3] concerns the molecule itself. The experiment in a line: single-molecule subunit counting (photobleaching steps of EGFP, TIRFM); EGFP fusions at low density in the plasma membrane of living Xenopus laevis oocytes, room temperature; bleaching steps counted by hand, fit to a binomial distribution (p = 0.7).
Data set [4] concerns the molecule itself. The experiment in a line: native gel or EMSA; Blue-Native PAGE of HEK 293 lysates in 0.05% (mTTYH1) or 0.1% (mTTYH3) DDM, 50 mM NaCl, 20 mM Tris-HCl pH 7.5; anti-FLAG western blot. In general terms: Mobility shift assays separate free from complexed probe on a gel.
Data set [5] deals with the molecule itself. The experiment in a line: cross-linking; in situ on adherent HEK 293 cells with membrane-impermeable BS3 (0, 10, 50, 100, 200, 2000 uM), 1 h at room temperature; lysis in 1% DDM; SDS-PAGE and anti-FLAG western blot. (A western blot detects proteins with antibodies after separation by electrophoresis.)
Data set [6] concerns the molecule itself. The experiment in a line: SEC-MALS; purified mTTYH1-GFP-8xHis, 50 uL at 1.18 mg/mL, Superdex 200 Increase, 20 mM Tris pH 7.5, 150 mM NaCl, 0.3 mM DDM; protein conjugate analysis.

For “mTTYH3 ECD1-T4L-ECD2 (from UniProt Q6P5F7 107-209; Q6P5F7 260-386) (domain or fragment)”, the stoichiometry N (commonly the number of molecules, sites or subunits per partner or assembly) in data set [1] was 4.

B1: mTTYH3-EGFP (HEK 293, pEGFP-N1) (natural protein, mouse, UniProt Q6P5F7 1-524, looked up)
chain: MAGVSYAAPWWVSLLHRLPHFDLRWEATSSQFRPEDADYQQALLLLGATALACLALDLLFLLFYSFWLCCRRRKTDEHLDADCCCTAWCVIITTLVCSAGIAVGFYGNGETSDGIHRATYSLRHANRTVAGVQDRVWDTAAALNRTAEPNLQSLERQLAGRQEPLRAVQRLQTLLGTLLGYTAAIPFWRNPGVSLEVLAEQVDLYDWYRWLGYLGLLLLDVIICLLVLVGLIRSSKGILVGVCLLGVLALVISWGALGLELAVSVGSSDFCVDPDTFVTKMVEEHSVLSGDILQYYLACSPRATNPFQQKLSGSHKALVEMQDVVAELLRNVPREHPATKDPLLRVQEVLNGTEVNLQHLTALVDCRSLHLDYVQALTGFCYDGVEGLIYLALFSFVTALMFSSIVCSIPHTWQQKRGPDDDGEEETAPGPRQAHDSLYRVHMPSLYSCGSSYGSEASIPAAAHTVSNAPVTEYMSQNANFQNPRCENTPLIGRESPPPSYTSSMRAKYLATSQPRPDSSGSGH
notes: mouse Tweety homolog 3 (mTTYH3), intact protein; also called EGFP-fused mTTYH3; mTTYH3-GFP; source: HEK 293 cells, transiently transfected, detergent-solubilised lysate; not shown: EGFP, C-terminal, kept
As for B1, the “stoichiometry N” value in data set [2] was 4 and 2.

B2: mTTYH3-EGFP (Xenopus oocytes, pGH19) (natural protein, mouse, UniProt Q6P5F7 1-524, looked up)
chain: B1 chain
notes: mouse Tweety homolog 3 (mTTYH3), intact protein; also called EGFP-fused mTTYH3; source: Xenopus laevis oocytes injected with about 1 ng cRNA, at the plasma membrane; not shown: EGFP, C-terminal, kept
For the molecule B2, the “stoichiometry N” value in data set [3] is 4.

B3: FLAG-tagged mTTYH3 (natural protein, mouse, UniProt Q6P5F7 1-524, looked up)
chain: B1 chain
notes: mouse Tweety homolog 3 (mTTYH3), intact protein; so the FLAG is probably C-terminal; also called mouse Tweety homolog 3; source: HEK 293 cells (HEK293T), transiently transfected; cross-linked on the cells or in DDM lysate
B3: the “stoichiometry N” value amounted to 2 in data set [4] and 4 in data set [5].

B4: EGFP fusion of KCNH1 (natural protein, UniProt O95259 1-989, looked up)
chain: MTMAGGRRGLVAPQNTFLENIVRRSNDTNFVLGNAQIVDWPIVYSNDGFCKLSGYHRAEVMQKSSTCSFMYGELTDKDTIEKVRQTFENYEMNSFEILMYKKNRTPVWFFVKIAPIRNEQDKVVLFLCTFSDITAFKQPIEDDSCKGWGKFARLTRALTSSRGVLQQLAPSVQKGENVHKHSRLAEVLQLGSDILPQYKQEAPKTPPHIILHYCVFKTTWDWIILILTFYTAILVPYNVSFKTRQNNVAWLVVDSIVDVIFLVDIVLNFHTTFVGPAGEVISDPKLIRMNYLKTWFVIDLLSCLPYDVINAFENVDEVSAFMGDPGKIGFADQIPPPLEGRESQGISSLFSSLKVVRLLRLGRVARKLDHYIEYGAAVLVLLVCVFGLAAHWMACIWYSIGDYEIFDEDTKTIRNNSWLYQLAMDIGTPYQFNGSGSGKWEGGPSKNSVYISSLYFTMTSLTSVGFGNIAPSTDIEKIFAVAIMMIGSLLYATIFGNVTTIFQQMYANTNRYHEMLNSVRDFLKLYQVPKGLSERVMDYIVSTWSMSRGIDTEKVLQICPKDMRADICVHLNRKVFKEHPAFRLASDGCLRALAMEFQTVHCAPGDLIYHAGESVDSLCFVVSGSLEVIQDDEVVAILGKGDVFGDVFWKEATLAQSCANVRALTYCDLHVIKRDALQKVLEFYTAFSHSFSRNLILTYNLRKRIVFRKISDVKREEEERMKRKNEAPLILPPDHPVRRLFQRFRQQKEARLAAERGGRDLDDLDVEKGNVLTEHASANHSLVKASVVTVRESPATPVSFQAASTSGVPDHAKLQAPGSECLGPKGGGGDCAKRKSWARFKDACGKSEDWNKVSKAESMETLPERTKASGEATLKKTDSCDSGITKSDLRLDNVGEARSPQDRSPILAEVKHSFYPIPEQTLQATVLEVRHELKEDIKALNAKMTNIEKQLSEILRILTSRRSSQSPQELFEISRPQSPESERDIFGAS
notes: KCNH1, voltage-gated K+ channel; Positive control of the subunit counting; also called EGFP-fused KCNH1; source: Xenopus laevis oocytes injected with 1 ng cRNA, at the plasma membrane
In the case of B4, in data set [3], the “stoichiometry N” value stood at 4.

B5: FLAG-tagged mTTYH1 (natural protein, mouse, UniProt Q9D3A9 1-450, looked up)
chain: MGAPPGYRPSAWVHLLHQLPRADFQLRPVPSGFAPRDQEYQQALLLVAALAGLGLGLSLIFIAVYLIRFCCCRPPEPHGAKSPPPGGGCVTWSCIAALLVGCAGIGIGFYGNSETSDGVSQLSSALLHANHTLSTIDDVVLETVERLGEAVKTELTTLEEVLSVRMELVAATRGARRQAEAAAQYLQGLAFWQGVSLSPVQVAEDVTFVEEYRWLAYVLLLLLVLLVCLFTLLGLAKQSKWLVVVMTAMSLLVLVLSWGSMGLEAATAVGLSDFCSNPDTYVLNLTQEETGLSSDILSYYFLCNQAVSNPFQQRLTLSQRALASIHSQLQGLEREAIPQFSAAQKPLLSLEETLNVTERSFHQLVALLHCRSLHKDYGSALRGLCEDALEGLLFLMLFSLLSAGALATTLCSLPRAWALFPPSDDYDDTDDDDPFNPQESKRFVQWQSSI
notes: mouse Tweety homolog 1 (mTTYH1), intact protein; so the FLAG is probably C-terminal; also called mouse Tweety homolog 1; source: HEK 293 cells (HEK293T), transiently transfected; cross-linked on the cells or in DDM lysate
Turning to B5, the “stoichiometry N” value in data set [4] is 2; in data set [5] it was 4.

B6: mTTYH1-EGFP (HEK 293, pEGFP-N1) (natural protein, mouse, UniProt Q9D3A9 1-450, looked up)
chain: B5 chain
notes: mouse Tweety homolog 1 (mTTYH1), intact protein; also called EGFP-fused mTTYH1; source: HEK 293 cells, transiently transfected, detergent-solubilised lysate; not shown: EGFP, C-terminal, kept
Turning to B6, in data set [2], the “stoichiometry N” value was 4 and 2.

B7: mTTYH1-EGFP (Xenopus oocytes, pGH19) (natural protein, mouse, UniProt Q9D3A9 1-450, looked up)
chain: B5 chain
notes: mouse Tweety homolog 1 (mTTYH1), intact protein; also called EGFP-fused mTTYH1; source: Xenopus laevis oocytes injected with about 1 ng cRNA, at the plasma membrane; not shown: EGFP, C-terminal, kept
Turning to B7, in data set [3], the “stoichiometry N” value was 4.

B8: mTTYH1-GFP-8xHis (natural protein, mouse, UniProt Q9D3A9 1-450, looked up)
chain: B5 chain
modifications: N-glycosylated (HexNAc at Asn; sites not given)
notes: mouse Tweety homolog 1 (mTTYH1), intact protein; also called purified mTTYH1-GFP; intact mTTYH1-GFP; not shown: EGFP, C-terminal, kept; His8, C-terminal, kept
In the case of B8, the “stoichiometry N” value in data set [6] was 4 and 2.
